# Assay results reported in the Immune Epitope Database (IEDB).
# Experiments:
# Test in all cases: IEDB peptide-MHC binding, purified MHC/competitive/radioactivity; filed as Kd, often an IC50 or EC50 that approximates it; ≥ and ≤ were set here for values at or beyond the usual limits of such assays
# [1] = target: HLA-B*07:02
# [2] = target: HLA-B*54:01
# [3] = target: HLA-B*35:01
# [4] = target: HLA-B*51:01
# [5] = target: HLA-B*53:01
# [6] = target: HLA-A*11:01
# [7] = target: HLA-A*03:01
# [8] = target: HLA-A*31:01
# [9] = target: HLA-A*33:01
# [10] = target: HLA-A*68:01
# [11] = target: HLA-A*68:02; conditions: source organism: Vaccinia virus WR
# [12] = target: HLA-A*02:06; conditions: source organism: Vaccinia virus WR
# [13] = target: HLA-A*02:03; conditions: source organism: Vaccinia virus WR
# [14] = target: HLA-A*02:02; conditions: source organism: Vaccinia virus WR
# [15] = target: HLA-A*02:01; conditions: source organism: Vaccinia virus WR
# [16] = source organism: SARS coronavirus Tor2
# [17] = source organism: Mammarenavirus guanaritoense
# [18] = source organism: Vaccinia virus Copenhagen
# [19] = source organism: Triticum aestivum
# [20] = source organism: Vaccinia virus WR
# [21] = source organism: Mammarenavirus machupoense
sequence,measurement,setting,value
APAHVSTIGV,Kd,[1]; [16],0.0344 µM
same,Kd,[2]; [16],3.11 µM
same,Kd,[3]; [16],10.5 µM
same,Kd,[4]; [16],12.5 µM
same,Kd,[5]; [16],17 µM
CPMCCSKIL,Kd,[1]; [17],0.0217 µM
same,Kd,[2]; [17],0.155 µM
same,Kd,[3]; [17],0.018 µM
same,Kd,[4]; [17],0.182 µM
same,Kd,[5]; [17],0.0629 µM
FILGIIITV,Kd,[6]; [18],19.6 µM
same,Kd,[7]; [18],1.5 µM
same,Kd,[1]; [18],≥ 32.7 µM
same,Kd,[2]; [18],3.34 µM
same,Kd,[3]; [18],≥ 39.6 µM
same,Kd,[8]; [18],1.17 µM
same,Kd,[9]; [18],4.51 µM
same,Kd,[4]; [18],≥ 68.4 µM
same,Kd,[5]; [18],5.54 µM
same,Kd,[10]; [18],3.21 µM
IPEQSRCQAI,Kd,[1]; [19],0.0146 µM
same,Kd,[2]; [19],≥ 32.4 µM
same,Kd,[3]; [19],0.519 µM
same,Kd,[4]; [19],0.246 µM
same,Kd,[5]; [19],0.519 µM
KPAMSTYSDI,Kd,[1]; [20],0.161 µM
same,Kd,[2]; [20],9.87 µM
same,Kd,[3]; [20],≥ 63.7 µM
same,Kd,[4]; [20],14 µM
same,Kd,[5]; [20],8.83 µM
KPDGSDSMDV,Kd,[1]; [20],0.244 µM
same,Kd,[2]; [20],≥ 69.9 µM
same,Kd,[3]; [20],≥ 69.9 µM
same,Kd,[4]; [20],≥ 69.6 µM
same,Kd,[5]; [20],≥ 69.9 µM
KPDHDGNTPL,Kd,[1]; [20],0.031 µM
same,Kd,[2]; [20],≥ 41 µM
same,Kd,[3]; [20],3.28 µM
same,Kd,[4]; [20],≥ 69.6 µM
same,Kd,[5]; [20],7.08 µM
KPKPAVRYAI,Kd,[1]; source organism: Variola virus,0.00472 µM
same,Kd,[2]; source organism: Variola virus,12.5 µM
same,Kd,[3]; source organism: Variola virus,≥ 69.9 µM
same,Kd,[4]; source organism: Variola virus,≥ 69.6 µM
same,Kd,[5]; source organism: Variola virus,≥ 69.9 µM
LMIFISSFLL,Kd,[6]; [20],1.21 µM
same,Kd,[7]; [20],0.42 µM
same,Kd,[11],0.0733 µM
same,Kd,[1]; [20],≥ 27.2 µM
same,Kd,[2]; [20],3.24 µM
same,Kd,[3]; [20],≥ 20.9 µM
same,Kd,[8]; [20],0.284 µM
same,Kd,[12],0.0764 µM
same,Kd,[9]; [20],0.707 µM
same,Kd,[4]; [20],1.6 µM
same,Kd,[5]; [20],0.971 µM
same,Kd,[13],0.0801 µM
same,Kd,[10]; [20],0.283 µM
same,Kd,[14],0.00293 µM
LPNVDLTTM,Kd,[1]; [20],0.0549 µM
same,Kd,[2]; [20],0.717 µM
same,Kd,[3]; [20],0.000159 µM
same,Kd,[4]; [20],0.0622 µM
same,Kd,[5]; [20],0.000222 µM
NPDQNTFPNI,Kd,[1]; [20],≥ 69.6 µM
same,Kd,[2]; [20],≥ 69.9 µM
same,Kd,[3]; [20],≥ 69.9 µM
same,Kd,[4]; [20],≥ 33.6 µM
same,Kd,[5]; [20],3.74 µM
NPIQLSSYSL,Kd,[1]; [16],0.416 µM
same,Kd,[2]; [16],1.77 µM
same,Kd,[3]; [16],0.395 µM
same,Kd,[4]; [16],0.246 µM
same,Kd,[5]; [16],0.531 µM
QPYLQLQPF,Kd,[1]; [19],0.149 µM
same,Kd,[2]; [19],11 µM
same,Kd,[3]; [19],0.00619 µM
same,Kd,[4]; [19],0.101 µM
same,Kd,[5]; [19],0.478 µM
RPPLNRNYV,Kd,[1]; [16],0.061 µM
same,Kd,[2]; [16],0.661 µM
same,Kd,[3]; [16],≥ 21.4 µM
same,Kd,[4]; [16],10.3 µM
same,Kd,[5]; [16],≥ 78.2 µM
SFSLESDSIK,Kd,[6]; [20],5.91 µM
same,Kd,[7]; [20],≥ 22 µM
same,Kd,[11],≥ 69.8 µM
same,Kd,[1]; [20],≥ 69.6 µM
same,Kd,[2]; [20],≥ 69.9 µM
same,Kd,[3]; [20],≥ 69.9 µM
same,Kd,[8]; [20],2.66 µM
same,Kd,[15],≥ 69.4 µM
same,Kd,[12],≥ 59.7 µM
same,Kd,[9]; [20],≥ 70 µM
same,Kd,[4]; [20],≥ 69.6 µM
same,Kd,[5]; [20],≥ 69.9 µM
same,Kd,[13],≥ 70.4 µM
same,Kd,[10]; [20],7.76 µM
same,Kd,[14],≥ 70 µM
SPAHLINKLL,Kd,[1]; [20],0.0266 µM
same,Kd,[2]; [20],2.96 µM
same,Kd,[3]; [20],≥ 51 µM
same,Kd,[4]; [20],5.34 µM
same,Kd,[5]; [20],6.85 µM
SPGEIKPKF,Kd,[1]; [20],0.0797 µM
same,Kd,[2]; [20],≥ 51.1 µM
same,Kd,[3]; [20],8.55 µM
same,Kd,[4]; [20],≥ 70.2 µM
same,Kd,[5]; [20],0.174 µM
TFFSYLMKDK,Kd,[6]; [20],0.0128 µM
same,Kd,[7]; [20],1.6 µM
same,Kd,[11],≥ 69.8 µM
same,Kd,[1]; [20],16.2 µM
same,Kd,[2]; [20],≥ 69.9 µM
same,Kd,[3]; [20],≥ 69.9 µM
same,Kd,[8]; [20],0.56 µM
same,Kd,[15],≥ 69.4 µM
same,Kd,[12],≥ 69.8 µM
same,Kd,[9]; [20],2.69 µM
same,Kd,[4]; [20],≥ 69.6 µM
same,Kd,[5]; [20],≥ 24.2 µM
same,Kd,[13],≥ 70.4 µM
same,Kd,[10]; [20],0.0959 µM
same,Kd,[14],≥ 50.3 µM
VPINVAEAY,Kd,[1]; [21],13.7 µM
same,Kd,[2]; [21],≥ 50.5 µM
same,Kd,[3]; [21],0.00628 µM
same,Kd,[4]; [21],≥ 57 µM
same,Kd,[5]; [21],0.202 µM
VPTNDHIPVV,Kd,[1]; [20],0.17 µM
same,Kd,[2]; [20],0.000661 µM
same,Kd,[3]; [20],10.6 µM
same,Kd,[4]; [20],0.0509 µM
same,Kd,[5]; [20],12 µM
